Target: GST-tetra-ubiquitin (4×UB) (UniProt P0CG48)
Test: LUMIER

B1: Renilla luciferase fused to the full-length WT spartin (natural protein)
chain: MEQEPQNGEPAEIKIIREAYKKAFLFVNKGLNTDELGQKEEAKNYYKQGIGHLLRGISISSKESEHTGPGWESARQMQQKMKETLQNVRTRLEILEKGLATSLQNDLQEVPKLYPEFPPKDMCEKLPEPQSFSSAPQHAEVNGNTSTPSAGAVAAPASLSLPSQSCPAEAPPAYTPQAAEGHYTVSYGTDSGEFSSVGEEFYRNHSQPPPLETLGLDADELILIPNGVQIFFVNPAGEVSAPSYPGYLRIVRFLDNSLDTVLNRPPGFLQVCDWLYPLVPDRSPVLKCTAGAYMFPDTMLQAAGCFVGVVLSSELPEDDRELFEDLLRQMSDLRLQANWNRAEEENEFQIPGRTRPSSDQLKEASGTDVKQLDQGNKDVRHKGKRGKRAKDTSSEEVNLSHIVPCEPVPEEKPKELPEWSEKVAHNILSGASWVSWGLVKGAEITGKAIQKGASKLRERIQPEEKPVEVSPAVTKGLYIAKQATGGAAKVSQFLVDGVCTVANCVGKELAPHVKKHGSKLVPESLKKDKDGKSPLDGAMVVAASSVQGFSTVWQGLECAAKCIVNNVSAETVQTVRYKYGYNAGEATHHAVDSAVNVGVTAYNINNIGIKAMVKKTATQTGHTLLEDYQIVDNSQRENQEGAANVNVRGEKDEQTKEVKEAKKKDK
fold weaker binding than to 2×UB: 4 fold
